Results from US20250352589A1, “OXYTOCIN-MIMETIC COMPOSITIONS AND USES THEREOF” (INSTITUT NATIONAL DE LA SANTÉ ET DE LA RECHERCHE MÉDICALE, priority 2021, published 2025).
Read-outs that look alike come from different tables or passages of the source.

Experiments:
human OT-R = molecular target: T1, human OT-R (Homo sapiens, UniProt P30559); assay: Activation of OT-R by bacterial peptides: calcium release from HEK cells transfected with human OT-R; assay type: cell-based; details: for Emax: mean ± standard error, maximal amplitude of Ca2+ release, HEK cells expressing human OT-R; for specific activation of OTR: OTR expressing HEK cells; for activation of the oxytocin receptor: statement in the description, micromolar scale
T1 construct: expressed in transfected cells; host or cells: HEK cells
T1 sequence (P30559 1-389): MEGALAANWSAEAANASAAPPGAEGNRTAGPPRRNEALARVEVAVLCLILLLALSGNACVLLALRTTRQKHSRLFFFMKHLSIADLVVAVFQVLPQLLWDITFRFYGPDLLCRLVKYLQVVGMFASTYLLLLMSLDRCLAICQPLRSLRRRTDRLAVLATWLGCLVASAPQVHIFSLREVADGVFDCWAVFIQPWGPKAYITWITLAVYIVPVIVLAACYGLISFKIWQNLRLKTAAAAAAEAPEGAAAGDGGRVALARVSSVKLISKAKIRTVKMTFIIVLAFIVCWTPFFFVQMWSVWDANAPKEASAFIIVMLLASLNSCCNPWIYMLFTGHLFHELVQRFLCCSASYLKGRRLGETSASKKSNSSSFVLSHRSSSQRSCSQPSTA

anti-oxytocin antibodies = assay: Proteomic analysis: 2D gel and OT immunodetection (OT IgG) of bacterial proteomes; assay type: binding
Description: In this study, 14 bacteria-extracted proteomes were analyzed: (i) from 5 Bifidobacterium species grown in anaerobe conditions, (ii) from 5 Lactobacillus species grown in anaerobe culture conditions and (iii) from 4 aerotolerant Lactobacillus species grown in aerobe conditions. Each proteome analysis was performed in triplicate and was further separated in 3 fractions i.e. soluble (S), membrane (M), and residual (R) resulting in 9 samples/proteome). Each fraction was initially screened by western blot (WB) for the presence OT-like reactivity to validate it for further 2D-SDS-PAGE analysis. […] Finally, all fractions have been analyzed using 2D gel technique and OT immunodetection. 2D gel electrophoresis allowed to improve visibility of the less abundant proteins in a complex sample. Thereby, all samples were analyzed at least once with this method to scan optimally each proteome in the search for OT mimicry. […] The specificity for OT-like staining was controlled by pre-adsorption of OT-IgG with OT peptide.
All protein spots in silver nitrate staining gels corresponding to OT-like spots in the membrane were excised and analyzed by mass spectrometry

human oxytocin receptor = human oxytocin receptor (human, UniProt P30559); assay: cell-based or functional assay
[1] = 2D-immunoblotting, spots identified by mass spectrometry

Molecule: H-DFVKNMITG-OH [Peptide 17]
- Emax (human OT-R): 135.3 ± 8.92

Molecule: H-DYVKNMITG-OH [Peptide 1]
- specific activation of OTR (human OT-R): specifically activated OTR
- most efficient OT-like peptides (human OT-R; judged by EC50 and maximal amplitude of Ca2+ release): most efficient
- Emax (human OT-R): 273.8 ± 35.03
- activation of the oxytocin receptor (human OT-R): strongly activate the oxytocin receptor at a micromolar scale

Molecule: H-KFVNDNELG-OH [Peptide 2]
- specific activation of OTR (human OT-R): specifically activated OTR
- Emax (human OT-R): 164.8 ± 107.9
- activation of the oxytocin receptor (human OT-R): strongly activate the oxytocin receptor at a micromolar scale

Molecule: H-QYIQEGR-OH [Peptide 6, H-QYIQEGR-OH]
- specific activation of OTR (human OT-R): specifically activated OTR
- Emax (human OT-R): 99.42 ± 6.77
- activation of the oxytocin receptor (human OT-R): strongly activate the oxytocin receptor at a micromolar scale

Molecule: H-LTITNVPNS-OH [Peptide 5]
- specific activation of OTR (human OT-R): specifically activated OTR
- Emax (human OT-R): 272 ± 99.09

Molecule: Elongation factor Tu [SEQ ID NO:17]
- immune cross-reaction with anti-oxytocin antibodies (anti-oxytocin antibodies; [1]): immune cross-react with anti-oxytocin antibodies

Molecule: H-KYIENISDE-OH [Peptide 14]
- specific activation of OTR (human OT-R): specifically activated OTR
- Emax (human OT-R): 221.5 ± 10.40

Molecule: H-SYFYNKEDG-OH [Peptide 10, LG]
- activation of the oxytocin receptor (human OT-R): strongly activate the oxytocin receptor at a micromolar scale

Molecule: CSCC[C@H](NC(=O)[C@@H]1CCCN1C(=O)CNC(=O)[C@H](CC(N)=O)NC(=O)[C@H](Cc1c[nH]c2ccccc12)NC(=O)[C@@H](NC(=O)[C@@H](NC(=O)[C@@H](NC(=O)[C@@H](N)CCCCN)[C@@H](C)O)C(C)C)C(C)C)C(=O)NCC(=O)O [Peptide 3]
- specific activation of OTR (human OT-R): specifically activated OTR
- Emax (human OT-R): 302 ± 35.41
- activation of the oxytocin receptor (human OT-R): strongly activate the oxytocin receptor at a micromolar scale

Molecule: Elongation factor Tu [SEQ ID NO:14]
- immune cross-reaction with anti-oxytocin antibodies (anti-oxytocin antibodies; [1]): immune cross-react with anti-oxytocin antibodies

Molecule: H-ATSKNCPIA-OH [Peptide 4]
- specific activation of OTR (human OT-R): specifically activated OTR
- Emax (human OT-R): 304.6 ± 29.70

Molecule: Enolase 2 [SEQ ID NO:8]
- immune cross-reaction with anti-oxytocin antibodies (anti-oxytocin antibodies; [1]): immune cross-react with anti-oxytocin antibodies

Molecule: CC[C@H](C)[C@H](NC(=O)[C@H](Cc1ccc(O)cc1)NC(=O)[C@@H](N)CC(=O)O)C(=O)N[C@@H](CCCCN)C(=O)N[C@@H](CC(N)=O)C(=O)N[C@@H](CCSC)C(=O)N[C@H](C(=O)N[C@H](C(=O)NCC(=O)O)[C@@H](C)O)[C@@H](C)CC [Peptide 8]
- specific activation of OTR (human OT-R): specifically activated OTR
- Emax (human OT-R): 140 ± 71.48
- activation of the oxytocin receptor (human OT-R): strongly activate the oxytocin receptor at a micromolar scale

Molecule: Glucose-6-phosphate isomerase [SEQ ID NO:18]
- immune cross-reaction with anti-oxytocin antibodies (anti-oxytocin antibodies): immune cross-react with anti-oxytocin antibodies

Molecule: H-KQFVHENELG-OH [Peptide 7]
- specific activation of OTR (human OT-R): specifically activated OTR
- Emax (human OT-R): 262.8 ± 35.64

Molecule: H-VDIQEFMIMPVG-OH [Peptide 9, Enolase 2 fragment 160-171; LG]
- activation of the oxytocin receptor (human OT-R): strongly activate the oxytocin receptor at a micromolar scale

Molecule: H-DYVKNMITG-OH [OT-like peptide #1, Elongation factor Tu 87-95, H-DYVKNMITG-OH]
- EC50 of calcium release (human oxytocin receptor): 2.77 µM
- Emax of calcium release (human oxytocin receptor): 274

Molecule: H-KFVNDNELG-OH [OT-like peptide #2, Glucose-6-phosphate isomerase 13-21, H-KFVNDNELG-OH]
- EC50 of calcium release (human oxytocin receptor): 3.21 µM
- Emax of calcium release (human oxytocin receptor): 165

Molecule: H-KTVVWNGPMG-OH [OT-like peptide #3, Phosphoglycerate kinase 317-326, H-KTVVWNGPMG-OH]
- Emax of calcium release (human oxytocin receptor): 302

Molecule: H-ATSKNCPIA-OH [OT-like peptide #4, GMP synthase [glutamine-hydrolyzing] 154-162, H-ATSKNCPIA-OH]
- EC50 of calcium release (human oxytocin receptor): 3.09 µM
- Emax of calcium release (human oxytocin receptor): 305

Molecule: H-LTITNVPNS-OH
- EC50 of calcium release (human oxytocin receptor): 2.7 µM
- Emax of calcium release (human oxytocin receptor): 272

Molecule: H-QYIQEGR-OH [OT-like peptide #6, Glucose-6-phosphate isomerase 313-319, H-QYIQEGR-OH]
- EC50 of calcium release (human oxytocin receptor): 3.79 µM
- Emax of calcium release (human oxytocin receptor): 99.4

Molecule: H-KQFVHENELG-OH [OT-like peptide #7, Glucose-6-phosphate isomerase 12-21, H-KQFVHENELG-OH]
- EC50 of calcium release (human oxytocin receptor): 2.57 µM
- Emax of calcium release (human oxytocin receptor): 263

Molecule: H-DYIKNMITG-OH [OT-like peptide #8, Elongation factor Tu 88-96, H-DYIKNMITG-OH]
- Emax of calcium release (human oxytocin receptor): 140

Molecule: H-VDIQEFMIMPVG-OH [OT-like peptide #9, Enolase 2 160-171, H-[…]-OH]
- Emax of calcium release (human oxytocin receptor): 119

Molecule: H-SYFYNKEDG-OH [OT-like peptide #10, Enolase 246-254, H-SYFYNKEDG-OH]
- Emax of calcium release (human oxytocin receptor): 41.6

Molecule: H-MFQAARKG-OH [OT-like peptide #11, Fructose tagatose bisphosphate aldolase 1-8, H-MFQAARKG-OH]
- Emax of calcium release (human oxytocin receptor): 4.65

Molecule: H-AYSPLGTGK-OH [OT-like peptide #12, 2,5-didehydrogluconate reductase 202-210, H-AYSPLGTGK-OH]
- Emax of calcium release (human oxytocin receptor): 5.25

Molecule: H-CYFEDAGA-OH [OT-like peptide #13, Triosephosphate isomerase 61-68, H-CYFEDAGA-OH]
- Emax of calcium release (human oxytocin receptor): 17.9

Molecule: H-KYIENISDE-OH
- EC50 of calcium release (human oxytocin receptor): 8.93 µM
- Emax of calcium release (human oxytocin receptor): 222

Molecule: H-IYLRSNPLMK-OH [OT-like peptide #15, Probable phosphoketolase 40-49, H-IYLRSNPLMK-OH]
- Emax of calcium release (human oxytocin receptor): 5.36

Molecule: H-GFDRDCPVV-OH [OT-like peptide #16, Elongation factor Tu 164-172, H-GFDRDCPVV-OH]
- Emax of calcium release (human oxytocin receptor): 2.13

Molecule: H-DFVKNMITG-OH [OT-like peptide #17, Elongation factor Tu 89-97, H-DFVKNMITG-OH]
- EC50 of calcium release (human oxytocin receptor): 7.52 µM
- Emax of calcium release (human oxytocin receptor): 135

B1: Fructose tagatose bisphosphate aldolase (protein, listed as Lactobacillus camelliae)
chain: MFQAARKGHYAIGAFNTNNLEWTRALLKGAQELNVPILIQTSMGAAKYMGGYKLCKALIELEAESMNITVPVVIHLDHGNFEAAKEAIAAGYNSVMFDGHDLPFDENLEKTKEIVKLAHAKGISVEAEVGSIGGEEDGVIGEGELASVEEAKTLAATGIDFMAAGIGNIHGKYPSNWKGLHFDRLQEIADAVDLPLVLHGGSGIPQDQVEKAISMGIAKLNINTECQLAFAKATREYILANKDQEGKGYDPRKLLAPGTQAITDTFKEISGWMGTRPVKMVPEEIK
modifications: Fructose tagatose bisphosphate aldolase
notes: protein expressed by Lactobacillus camelliae
- immune cross-reaction with anti-oxytocin antibodies (anti-oxytocin antibodies; [1]): immune cross-react with anti-oxytocin antibodies

B2: 2,5-didehydrogluconate reductase (protein, listed as Lactobacillus camelliae)
chain: MAEISKMSDTYTLSNGVKIPIVGFGTWQTPDGDVAKHSVEVAIKDGYRHIDTAAMYRNEDSVGEGIKAGLAAAGLKRDDLFVTTKLNNNAHSFDLVQKAIDESLTKLGLDHVDLYLIHWPNPVSFRDSYPDSLKETWRGMEQVYKDGKARAIGISNFRQAHLDVIKADATVEPMVNQIFLNPSDLQPAVTKMNAENNILSEAYSPLGTGKLLGNEELAKVAAKYGKGVAQVLLRWSLQHGFLPLAKSVHDARIKENTELFDFTLSDEDMKTLDGMRGVAGLATDPDTTNF
modifications: 2,5-didehydrogluconate reductase
notes: as for B1
- immune cross-reaction with anti-oxytocin antibodies (anti-oxytocin antibodies; [1]): immune cross-react with anti-oxytocin antibodies

B3: Triosephosphate isomerase (protein, listed as Lactobacillus camelliae)
chain: MAGNWKMNKNPEETQAFLDGVKGKLPESSKVQTVIAAPAIDLTTLVAGAKGTPLQTAAENCYFEDAGAFTGETSPKALKDMGLDYVVIGHSERRGYFHETDQDINKKAKAILKNGLLPIICCGESLDQREAGQTNDWVASQVEAALAGISAADVKNSVIAYEPIWAIGTGKTASADQAQEVVAHIRSIVAKLYDAETADAVRILYGGSVKPANVKELMAKPDIDGGLVGGASMDPESFVALANYQD
modifications: Triosephosphate isomerase
notes: as for B1
- immune cross-reaction with anti-oxytocin antibodies (anti-oxytocin antibodies; [1]): immune cross-react with anti-oxytocin antibodies

B4: 2,3-bisphosphoglycerate-dependent phosphoglycerate mutase (protein, listed as Lactobacillus camelliae)
chain: MAKLVLIRHGQSEWNLSNQFTGWVDVDLSEKGTEEAKEAGRRIKKAGLEFDQAYTSVLTRAIKTLHYALEESDQLWIPETKTWRLNERHYGALQGQNKAEAAKKWGDEQVHIWRRSYDTLPPLLSADDEGSAAKDRRYANLDPRIIPGGENLKVTLERVIPFWEDHIAPDLLDGKNVIIAAHGNSLRALTKYIENISDEDIINLEMTTGEPVVYTFNDKLEVTDKVKLSK
modifications: 2,3-bisphosphoglycerate-dependent phosphoglycerate mutase
notes: as for B1
- immune cross-reaction with anti-oxytocin antibodies (anti-oxytocin antibodies; [1]): immune cross-react with anti-oxytocin antibodies
